The source of these data is patent publication US20120149889.

One data set concerns outer membrane proteins (OMPs) (Rickettsia rickettsii). As to the kind of experiment: ELONA.
Settings: not given
Take “ATCCGTCACACCTGCTCTACATCACATCTGACTGAGTCCATGGCGCTCTGTGTGTGGTGTTGGCTCCCGTAT [R3-39R]”: the binding signal was 2.05 A405.

For “ATCCGTCACACCTGCTCTTTCACTAAGCTGACTTTTCACCTCGTCTTCGTGCCGTGGTGTTGGCTCCCGTAT [R3-40R]”, the binding signal is 1.99 A405.

On to “ATACGGGAGCCAACACCACACACAGAGCGCCATGGACTCAGTCAGATGTGATGTAGAGCAGGTGTGACGGAT [R3-39F]”, for which the binding signal was determined as 2.12 A405.

A further data set has as its system outer membrane proteins (OMPs) (Rickettsia typhi). As to the kind of experiment: ELONA.
Settings: not given
Turning to “ATCCGTCACACCTGCTCTTGCTTATATTTAATTTTTTTCCCAAACTAGTAAGATTGGTGTTGGCTCCCGTAT [R1-21R]”, the binding signal amounted to 2.88 A405.

On to “ATACGGGAGCCAACACCACCAACGAATACTACCAGGCCTAGCACAATACACAACAGAGCAGGTGTGACGGAT [R1-27bF]”, for which the binding signal was determined as 2.62 A405.

Take “ATCCGTCACACCTGCTCTACAGTTAGAGCTTGCCGTATGCCTTTGTTAACATAATGGTGTTGGCTCCCGTAT [R1-30R]”: the binding signal is 2.85 A405.

For another data set, the system named is TBEV target (not specified) (Tick-borne encephalitis virus). As to the kind of experiment: ELONA.
Settings: not given
The sequence “ATCCGTCACACCTGCTCTGGGCCAACGGACGGGATCGCGAGGCTAAGACGTCTCTGGTGTTGGCTCCCGTAT [TBEV-6R]” displayed a binding signal of 2.12 A405.

Regarding “ATACGGGAGCCAACACCACCATGCCCCTTTAAGTGAATAGACTAGTGGCCGTTGAGAGCAGGTGTGACGGAT [TBEV-5F]”, the binding signal was 2.06 A405.

In turn, “ATCCGTCACACCTGCTCTGTACGTTACTCGCCGATACGGAAGGGCGGTGCCGAGTGGTGTTGGCTCCCGTAT [TBEV-1R]” registered a binding signal of 2.15 A405.

Consider “ATACGGGAGCCAACACCACACGAACGGAGTGCACCGGGGAAGATACTCCAACGCAGAGCAGGTGTGACGGAT [TBEV-3F]”, for which the binding signal is 1.8 A405.

In the case of “ATACGGGAGCCAACACCACCGCAGGAGTCCATCAGGGGTTGGCAGTCAGCGCTCAGAGCAGGTGTGACGGAT [TBEV-2F]”, the binding signal was determined as 2.31 A405.

Take “ATCCGTCACACCTGCTCTCAACGGCCACTAGTCTATTCACTTAAAGGGGCATGGTGGTGTTGGCTCCCGTAT [TBEV-5R]”: the binding signal was found to be 1.93 A405.

In the case of “ATACGGGAGCCAACACCATTGACTTGGCCGTCTCTGACCCCTAGCACCCCTCGCAGAGCAGGTGTGACGGAT [TBEV-10F]”, the binding signal was determined as 1.95 A405.

“ATACGGGAGCCAACACCACACACAGAGCGCCATGGACTCAGTCAGATGTGATGTAGAGCAGGTGTGACGGAT [TBEV-8F]” returned a binding signal of 1.85 A405.

As to “ATACGGGAGCCAACACCACTCGGCACCGCCCTTCCGTATCGGCGAGTAACGTACAGAGCAGGTGTGACGGAT [TBEV-1F]”, the binding signal was found to be 1.94 A405.

Take “ATACGGGAGCCAACACCAGCCAATTATACAGGTAGGTCAAAAAAGTTTAGGGGAAGAGCAGGTGTGACGGAT [TBEV-4F]”: the binding signal was found to be 1.88 A405.

“ATCCGTCACACCTGCTCTTCCCCTAAACTTTTTTGACCTACCTGTATAATTGGCTGGTGTTGGCTCCCGTAT [TBEV-4R]” registered a binding signal of 2.12 A405.

On to “ATCCGTCACACCTGCTCTGAGCGCTGACTGCCAACCCCTGATGGACTCCTGCGGTGGTGTTGGCTCCCGTAT [TBEV-2R]”, for which the binding signal came to 2.6 A405.

The sequence “ATCCGTCACACCTGCTCTACATCACATCTGACTGAGTCCATGGCGCTCTGTGTGTGGTGTTGGCTCCCGTAT [TBEV-8R]” registered a binding signal of 2.43 A405.

Regarding “ATCCGTCACACCTGCTCTGCGAGGGGTGCTAGGGGTCAGAGACGGCCAAGTCAATGGTGTTGGCTCCCGTAT [TBEV-10R]”, the binding signal came out at 1.82 A405.

“ATCCGTCACACCTGCTCTGCGTTGGAGTATCTTCCCCGGTGCACTCCGTTCGTGTGGTGTTGGCTCCCGTAT [TBEV-3R]” returned a binding signal of 1.91 A405.

In turn, “ATACGGGAGCCAACACCAGAGACGTCTTAGCCTCGCGATCCCGTCCGTTGGCCCAGAGCAGGTGTGACGGAT [TBEV-6F]” returned a binding signal of 2.07 A405.

Sequence “ATACGGGAGCCAACACCATCCTCCCGCGACGTCTGGAGAACAGCCTCTACTTTAAGAGCAGGTGTGACGGAT [TBEV-7F]” gave a binding signal of 2.02 A405.

For “ATCCGTCACACCTGCTCTTAAAGTAGAGGCTGTTCTCCAGACGTCGCGGGAGGATGGTGTTGGCTCCCGTAT [TBEV-7R]”, the binding signal was 1.97 A405.

The test system of a further data set is outer membrane proteins (OMPs) (Rickettsia conorii). As to the kind of experiment: ELONA.
Settings: not given
The sequence “ATACGGGAGCCAACACCAGCACAACTTAAGTGCAAGCAAATTCGGATTAACCAAAGAGCAGGTGTGACGGAT [R4-1F]” gave a binding signal of 1.99 A405.

The sequence “ATCCGTCACACCTGCTCTCCAGATTTGGTGTTATGCTCTTGTTTGGCTTGGACTTGGTGTTGGCTCCCGTAT [R4-14R]” had a binding signal of 2.05 A405.

Take “ATCCGTCACACCTGCTCTTTGGTTAATCCGAATTTGCTTGCACTTAAGTTGTGCTGGTGTTGGCTCCCGTAT [R4-1R]”: the binding signal amounted to 2.12 A405.

The next data set relates to CCHF envelope peptides (individual peptide not specified) (Crimean-Congo hemorrhagic fever virus). As to the kind of experiment: ELONA.
Settings: not given
“ATACGGGAGCCAACACCATAGTGTTGGGCCAATACGGTAACGTGTCCTTGGAGAGCAGGTGTGACGGAT [C1-1/7F]” displayed a binding signal of 1.9 A405.

In the case of “ATCCGTCACACCTGCTCTGGGCAGCACTACCGGTGTCGTTGTGTTGGCATTTCTTGGTGTTGGCTCCCGTAT [C1-6R]”, the binding signal stood at 1.95 A405.

Take “ATCCGTCACACCTGCTCTCGGGACGCGAGCGGCCTGCGGGAACCAGGCGGGGGCTGGTGTTGGCTCCCGTAT [C3-6R]”: the binding signal is 2.48 A405.

As to “ATCCGTCACACCTGCTCTACGGCCCTGCACCACTTATTCTAGGCAGTGTTCTTCTGGTGTTGGCTCCCGTAT [C1-10R]”, the binding signal stood at 1.62 A405.

“ATCCGTCACACCTGCTCTCCAAGGACACGTTACCGTATTGGCCCAACACTATGGTGTTGGCTCCCGTAT [C1-1/7R]” came in with a binding signal of 2.05 A405.

As for “ATACGGGAGCCAACACCAATGAGAGCAAAGATCCCAGGATACACTAATCCCTGTAGAGCAGGTGTGACGGAT [C1-3F]”, the binding signal turned out to be 1.85 A405.

“ATACGGGAGCCAACACCATGGTGACGGACCTTGAGAGCAAGACCGCTACGATTCAGAGCAGGTGTGACGGAT [C1-9F]” came in with a binding signal of 2.24 A405.

With “ATACGGGAGCCAACACCACAGACACCGAATGAGCAACACAACAACGGGACCCGTAGAGCAGGTGTGACGGAT [C2-8F]”, the binding signal amounted to 1.65 A405.

Turning to “ATCCGTCACACCTGCTCTATACCAACGGGGGACGGTCTGAGCTAGTGACGCCCGTGGTGTTGGCTCCCGTAT [C3-7R]”, the binding signal came out at 1.5 A405.

The sequence “ATCCGTCACACCTGCTCTATGAGTCTATCCAGTTCTAAAAGTTCCGCTCTTTATTGGTGTTGGCTCCCGTAT [C1-1R]” returned a binding signal of 1.99 A405.

As to “ATCCGTCACACCTGCTCTCCAAGGACACGTCACCGTATTGGCCCAACACTATGGTGTTGGCTCCCGTAT [C3-8R]”, the binding signal was found to be 1.48 A405.

“ATACGGGAGCCAACACCACAGCTGACAATAGAAGGATATCCTGGGTACCGATGCAGAGCAGGTGTGACGGAT [C3-4F]”: the binding signal came out at 2.67 A405.

In turn, “ATCCGTCACACCTGCTCTGCAAAGAGGTCGTAGTGCCGTGTCCGGTCGGATACCTGGTGTTGGCTCCCGTAT [C2-10R]” yielded a binding signal of 1.66 A405.

Consider “ATCCGTCACACCTGCTCTGAATCGTAGCGGTCTTGCTCTCAAGGTCCGTCACCATGGTGTTGGCTCCCGTAT [C1-9R]”, for which the binding signal was determined as 1.56 A405.

“ATCCGTCACACCTGCTCTGCATCGGTACCCAGGATATCCTTCTATTGTCAGCTGTGGTGTTGGCTCCCGTAT [C3-4R]” came in with a binding signal of 2.47 A405.

Another data set concerns outer membrane proteins (OMPs) (Rickettsia belli). As to the kind of experiment: ELONA.
Settings: not given
Sequence “ATACGGGAGCCAACACCATAACAAATAACCACCCTCAATGCTAGATAGTGGCTTAGAGCAGGTGTGACGGAT [R5-23F]” showed a binding signal of 2.93 A405.

On to “ATCCGTCACACCTGCTCTAAATAGATCACGCATAATGGCATTAGTATTAGTGTTGGTGTTGGCTCCCGTAT [R5-21bR]”, for which the binding signal is 1.89 A405.

“ATACGGGAGCCAACACCAGCACTGCAGTTAACATTTACGAAGAGGCTTTAATGCAGAGCAGGTGTGACGGAT [R5-39F]” registered a binding signal of 1.95 A405.

The subject of a further data set is WNV envelope peptide (West Nile virus). As to the kind of experiment: ELONA.
Settings: not given
“ATCCGTCACACCTGCTCTGCCGGACCATCCGATATCAGCTGTGGTGTTGGCTCCCGTAT [WNV 19R]”: the binding signal was determined as 2.18 A405.

Regarding “ATACGGGAGCCAACACCACAGCTGATATCGGATGGTCCGGCAGAGCAGGTGTGACGGAT [WNV 19F]”, the binding signal was 2.73 A405.

In turn, “ATACGGGAGCCAACACCACCCCGTCGCCAAGCACTTGGCTGGGCTCTAACGGCCAGAGCAGGTGTGACGGAT [WNV 18F]” came in with a binding signal of 2 A405.

“ATCCGTCACACCTGCTCTCAGCGGCGGCGGGCCCGGGCGATGGAGGTCCTGACATGGTGTTGGCTCCCGTAT [WNV 16R]” returned a binding signal of 2.25 A405.

“ATACGGGAGCCAACACCACCCGTGGCCTTCACCCAGCCAGGGGCCCCGTCTCTGAGAGCAGGTGTGACGGAT [WNV 20F]” registered a binding signal of 2.54 A405.

Turning to “ATACGGGAGCCAACACCATGTCAGGACCTCCATCGCCCGGGCCCGCCGCCGCTGAGAGCAGGTGTGACGGAT [WNV 16F]”, the binding signal came to 2.45 A405.

On to “ATCCGTCACACCTGCTCTCAGAGACGGGGCCCCTGGCTGGGTGAAGGCCACGGGTGGTGTTGGCTCCCGTAT [WNV 20R]”, for which the binding signal is 2.47 A405.

Still in this data set, the particulars now being: also positive in lateral flow (FIG. 9C).
“ATCCGTCACACCTGCTCTGGCCGTTAGAGCCCAGCCAAGTGCTTGGCGACGGGGTGGTGTTGGCTCCCGTAT [WNV 18R]” displayed a binding signal of 2.65 A405.

Another data set has as its system outer membrane proteins (OMPs) (Rickettsia parkeri). As to the kind of experiment: ELONA.
Settings: not given
“ATCCGTCACACCTGCTCTTTTCCTATGAATGGTAATCAATTAGAGTCTATATCTTGGTGTTGGCTCCCGTAT [R2-17R]” yielded a binding signal of 2.05 A405.

In the case of “ATACGGGAGCCAACACCAGAAAATGAATACTTCCCAAGCTTGTCAAGCAAGTAAGAGCAGGTGTGACGGAT [R2-5F]”, the binding signal was determined as 1.95 A405.

As for “ATACGGGAGCCAACACCATAACGGTTCCCTTAATGCGCTACCCACACTATACAAGAGCAGGTGTGACGGAT [R2-14F]”, the binding signal amounted to 2.08 A405.

Another data set deals with CCHF Peptide 1 (envelope surface peptide) (Crimean-Congo hemorrhagic fever virus) (UniProt Q8JSZ3). As to the kind of experiment: SPR.
Sequence of UniProt Q8JSZ3 (Q8JSZ3 whole entry, looked up): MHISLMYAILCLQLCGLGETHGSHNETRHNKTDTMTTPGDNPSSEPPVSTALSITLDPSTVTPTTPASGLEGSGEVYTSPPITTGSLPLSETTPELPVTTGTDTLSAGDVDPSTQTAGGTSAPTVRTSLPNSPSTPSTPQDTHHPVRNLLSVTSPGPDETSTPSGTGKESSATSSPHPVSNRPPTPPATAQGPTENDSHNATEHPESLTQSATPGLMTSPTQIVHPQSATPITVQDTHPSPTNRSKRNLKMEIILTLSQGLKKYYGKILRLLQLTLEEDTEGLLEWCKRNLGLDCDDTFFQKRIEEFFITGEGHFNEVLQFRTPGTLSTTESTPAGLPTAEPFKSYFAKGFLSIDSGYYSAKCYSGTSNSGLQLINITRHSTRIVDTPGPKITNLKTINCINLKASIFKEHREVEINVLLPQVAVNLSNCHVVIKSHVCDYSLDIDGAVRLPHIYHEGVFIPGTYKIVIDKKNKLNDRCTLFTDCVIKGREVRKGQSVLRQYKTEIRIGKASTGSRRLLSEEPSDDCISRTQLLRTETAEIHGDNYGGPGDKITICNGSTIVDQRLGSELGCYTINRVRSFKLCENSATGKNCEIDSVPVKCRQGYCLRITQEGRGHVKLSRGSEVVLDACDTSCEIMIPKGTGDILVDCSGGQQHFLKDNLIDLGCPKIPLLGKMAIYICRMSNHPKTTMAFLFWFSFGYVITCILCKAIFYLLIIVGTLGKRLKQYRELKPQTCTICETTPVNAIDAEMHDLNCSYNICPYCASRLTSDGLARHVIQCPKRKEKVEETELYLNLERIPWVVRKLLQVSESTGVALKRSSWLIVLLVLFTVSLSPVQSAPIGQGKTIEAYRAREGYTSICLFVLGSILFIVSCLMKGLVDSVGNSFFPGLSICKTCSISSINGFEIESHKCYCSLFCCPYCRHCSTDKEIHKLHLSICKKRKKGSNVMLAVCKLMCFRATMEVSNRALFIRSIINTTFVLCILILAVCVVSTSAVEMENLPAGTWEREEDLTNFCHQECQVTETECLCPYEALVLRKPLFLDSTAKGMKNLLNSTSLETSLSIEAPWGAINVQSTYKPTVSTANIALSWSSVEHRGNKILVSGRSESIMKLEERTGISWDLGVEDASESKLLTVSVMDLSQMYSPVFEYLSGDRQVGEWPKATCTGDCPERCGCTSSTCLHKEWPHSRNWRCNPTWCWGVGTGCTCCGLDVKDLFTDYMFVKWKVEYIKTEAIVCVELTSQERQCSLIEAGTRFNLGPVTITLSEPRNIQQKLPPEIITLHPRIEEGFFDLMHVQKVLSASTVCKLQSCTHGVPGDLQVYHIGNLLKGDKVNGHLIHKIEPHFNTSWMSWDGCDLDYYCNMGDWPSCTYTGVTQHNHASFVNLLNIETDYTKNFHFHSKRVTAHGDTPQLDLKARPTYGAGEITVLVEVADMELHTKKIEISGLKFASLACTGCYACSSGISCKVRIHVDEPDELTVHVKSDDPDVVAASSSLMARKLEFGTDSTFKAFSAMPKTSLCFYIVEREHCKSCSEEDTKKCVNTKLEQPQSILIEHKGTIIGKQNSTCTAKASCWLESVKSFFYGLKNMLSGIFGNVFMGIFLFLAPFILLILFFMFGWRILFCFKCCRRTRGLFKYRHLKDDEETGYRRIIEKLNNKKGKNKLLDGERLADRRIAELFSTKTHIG
Settings: not given
For orientation: Kd means the equilibrium constant for the complex coming apart. For the sequence “ATACGGGAGCCAACACCATGGTGACGGACCTTGAGAGCAAGACCGCTACGATTCAGAGCAGGTGTGACGGAT [C1-9F]”, the Kd came to 8.13 pM.
